Conditions in all cases: both partners purified
Test [1] concerns the target T1, histone H4 (recombinant) (human, UniProt P62805 2-103). Put plainly: crystal structure; DNAJC9 αB C243S mixed 1:1 with the MCM2 HBD (61–130)–H3.3 (57–135)–H4 complex, gel filtration in 500 mM NaCl; PDB 7CIZ, 1.80 Å.
Test [2] addresses T2, MCM2 HBD (61–130)–H3.3–H4 complex ( | human, UniProt P49736 61-130; P84243 1-136; P62805 2-103).
T2 construct: histone H3.3, human; histone H4, human; also called pre-assembled MCM2 HBD-H3.3-H4 complexes; MCM2 HBD–H3.3–H4 complex; source: purified as described previously (Huang et al., 2015); copies: + +
As to the kind of experiment: pull-down; GST-tagged protein (1.5 nmol) on Glutathione Sepharose 4B, 1.5 nmol histone complex added; 20 mM Tris pH 7.5, 500 mM NaCl, 4°C, 2 hours; washes with 0.5% Triton X-100; SDS-PAGE.

The target of test [3] is T1, histone H4 (recombinant). As to the kind of experiment: crystal structure; DNAJC9 HBD C243S mixed 1:1 with the MCM2 HBD (61–130)–H3.3 (57–135)–H4 complex, gel filtration in 1 M NaCl; PDB 7CJ0, 2.50 Å.
Test [4] has as its target T3, human histones H3.3–H4 tetramer (human, UniProt P84243 1-136; P62805 1-103).
T3 construct: histone H3.3, human; histone H4, human; methods call it a tetramer; construct as in Huang et al., 2015; also called pre-assembled H3.3-H4; H3.3 WT-H4; source: bacteria, co-expressed and purified (as in Huang et al., 2015; Superdex 200 in 2 M NaCl); copies: 2 + 2
As to the kind of experiment: ITC; MicroCal PEAQ-ITC, 20°C, 20 mM Tris-HCl pH 7.5, 500 mM NaCl; 300 μM DNAJC9 HBD in the syringe, 30 μM (dimers) H3-H4 in the cell; one set of sites model; n = 3.

B1: DNAJC9 αB C243S (204–249), GST tag removed (domain or fragment)
chain: RKELGLDEGVDSLKAAIQSRQKDRQKEMDNFLAQMEAKYSKSSKGG
notes: crystallized construct; also called isolated DNAJC9 αB helix (C243S); source: E. coli BL21 (DE3)-RIL, purified (Glutathione Sepharose 4B, 3C protease, Superdex 200)
As to B1, the binding result in the test with histone H4 (recombinant) [1] is “binds”.

B2: GST-DNAJC9 HBD (histone binding domain, 171–249) (domain or fragment)
chain: EVPSYNAFVKESKQKMNARKRRAQEEAKEAEMSRKELGLDEGVDSLKAAIQSRQKDRQKEMDNFLAQMEAKYCKSSKGG
notes: PDB 7CJ0 holds the same limits with C243S; also called GST-tagged DNAJC9 HBD; DNAJC9 HBD WT; source: E. coli BL21 (DE3)-RIL, purified (Glutathione Sepharose 4B, Superdex 200)
In the case of B2, the binding result in test [2] is given as “binds”.

B3: GST-DNAJC9 HBD 4A1 (E195A E196A E199A A200E) (domain or fragment)
chain: EVPSYNAFVKESKQKMNARKRRAQAAAKAEEMSRKELGLDEGVDSLKAAIQSRQKDRQKEMDNFLAQMEAKYCKSSKGG
notes: source: E. coli BL21 (DE3)-RIL, purified (Glutathione Sepharose 4B, Superdex 200)
As to B3, the binding result in test [2] is “binds”.

B4: GST-DNAJC9 HBD Q224A R227A (domain or fragment)
chain: EVPSYNAFVKESKQKMNARKRRAQEEAKEAEMSRKELGLDEGVDSLKAAIQSRAKDAQKEMDNFLAQMEAKYCKSSKGG
notes: as for B3
Turning to B4, in test [2], the binding result was “binds”.

B5: GST-DNAJC9 HBD F234A L235A (domain or fragment)
chain: EVPSYNAFVKESKQKMNARKRRAQEEAKEAEMSRKELGLDEGVDSLKAAIQSRQKDRQKEMDNAAAQMEAKYCKSSKGG
notes: as for B3
B5: the binding result in test [2] is “binds”.

B6: DNAJC9 HBD C243S (171–249), GST tag removed (domain or fragment)
chain: EVPSYNAFVKESKQKMNARKRRAQEEAKEAEMSRKELGLDEGVDSLKAAIQSRQKDRQKEMDNFLAQMEAKYSKSSKGG
notes: crystallized construct; source: E. coli BL21 (DE3)-RIL, purified (Glutathione Sepharose 4B, 3C protease, Superdex 200)
For B6, the binding result with histone H4 (recombinant) [3] is recorded as “binds”.

B7: DNAJC9 HBD (171–249), GST tag removed (domain or fragment)
chain: EVPSYNAFVKESKQKMNARKRRAQEEAKEAEMSRKELGLDEGVDSLKAAIQSRQKDRQKEMDNFLAQMEAKYCKSSKGG
notes: used in ITC; also called DNAJC9 HBD WT; source: E. coli BL21 (DE3)-RIL, purified (Glutathione Sepharose 4B, 3C protease, Superdex 200)
Molecule B7 came in with an equilibrium dissociation constant (Kd) in test [4] of 55 nM.

B8: GST-DNAJC9 HBD M238A Y242A (domain or fragment)
chain: EVPSYNAFVKESKQKMNARKRRAQEEAKEAEMSRKELGLDEGVDSLKAAIQSRQKDRQKEMDNFLAQAEAKACKSSKGG
notes: as for B3
On to B8, for which, in test [2], the binding result was “binds”.

The record behind these values is PMC8221569 (Molecular Cell, 2021).
